Target: JUNV GP1 (Junín virus GP1 glycoprotein, residues 87 to 232) (Junín virus (JUNV), strain XJ13 …, UniProt C1K9J9)
Assay: crystal structure
Conditions: both partners purified

B1: Fab fragment of NAb JUN1 (Fab, V domains shown)
VH: LVQSVETGGGLVRPGNSLKLSCVTSGFTFSNYQMHWLRQPPGKRLEWIAVITVKSDNYGANYVESVKGRFAISRDDSKSSVYLEMNRLREEDTATYFCSRSGIYDGYYAYAMDYWGQGTSVTVSS
VL: SVVMTQSQKFMSTSVGDRVSITCKASQIVGTSVAWYQQKAGQSPKLLIYWASTRHTGVPDRFTAGGSGTDFTLTITNVQSEDLADYFCQQYATYPLTFGSGTKLELK
notes: also called Fab JUN1; JUN1 Fab; source: HEK293T, heavy and light chains coexpressed, purified
Question: Does B1 bind?
Answer: binds

Reference: PMC9040744 (mBio, 2022)
